Experimental data taken from the NTF2 design screens of Basanta et al. (2020).

Assay: protease stability score; higher = more stable; yeast display proteolysis, trypsin and chymotrypsin;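 further: relative to predicted unfolded state with 0 unfolded-like and 1 meaning tenfold more protease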

Sequence | protease stability score
DERTKQFNELLHIFIRDLHTGDEESHERMMDPNVRTEVGEFRMHGRENVRHWWHEWLRLLGLDRIEVRVRDHHVIDGRLRIDVELKQGDKNIDTHVILVVINGRMHSQRYEFH | 0.717
DERTKSYELALRIIEHVNKTGDEEMSTHMADPNARVVQGEKEIHGRELFIRWMKEIRVEDIKHRDKTIIGDKLILRVDIHGIIDGRHEDFHVILIVTKVNGRWHLEEVRIH | 1.36
DERTLEQLLQDFINNMQTGDHQSLKDLLDENARVNIGDKTLSGRERVTTALKRLMRRVDHIQVDHYEVTNGEMNIDMQLEVNGVRVKVEVIIEVHNGKAKFIEFRVRNEEQWERVEG | 2.19
DESAVNNLVRLAKAWLRGDPKKIEHLVDKDAKAQIGDKTLHGREDLKDHADELRKDMTVDVKSVTNNNQNGQAVVDVKFEADRNGRPETHTLDAKATAHNGDIVDVKIHQDG | -0.049
DESDKEREDVFRSWIESMRTGDEKNMRELMDPHARTEIGDKEYHGREVVEYIRREWRITHVELHRIEKQGDKIISHGHDEINIDGRKLYIHSRIIARKVNGVWIIESLEFH | 1.29
DESDKYVHHVAELMIEWFLTGDEELFEEYADPNMRVIFENHENHGREEVMKHMHDWWRKVKNVRVEYRIRDVQFQGDKARIEGELIIRIDGRNVIREVEYHILVIDGVLHSYKLVYK | 1.47
DESDTLAKEATREFEEFMRTGDEHSLLKLADPHVRLFWNGKQLVGREDYSKHIKFLLEHFGFDNIESRTEHIDWQGDKLRLHLRMHVNGKTITVEIHSEKINGRWMNREIHFT | 1.44
DESEDAVRKSMELWEESMRTGNEERLIELVDPNVRLDINGQIYHGWSQFVEVIFNEFRHARLESIEIHEVRLQGDKIRSRTTLVIRINGRLKHLDVRFIVKKVDGRWQIHSEERE | 1.31
DESEEDVEYFVKILDRAWATGDEDTLRRLLDPHYRVHVDGKDIIGREEVVRLFKEMGWELRFHRDHIHVQGDKMFIHGTLRLIYNGRIEEREIHLDVNKINGRWLNERVEIR | 1.81
DESEEEMKKAFKDLVDSLLTGDEHLLRTFADPNMRLRIGDKTFHGRETYSEIFLKEWKKLGIKHYQVTIHHLEVQGDKIHVDTRVNVHIGDWTIHRETRLHITKVNGQWILRQEDVD | 0.416
DESEEESHKVAELVIKIWETGDEHIWENLADPHTRYEIDGKIIHGREIASHIMRIFLERVKNVTFRIKDVKRHVYNGVIEVRNETELNIGDKRIDTHIMVILRKVNGRWYMTEVRFQID | 1.53
DESEEHSEIMLRILHHALRTGDEEEITRLLDPHVRVIIGDKHYHGWEDYVKTVFTTAKEMRMHIHITDSKVQGNYVHLDTRLLIHYNGKTFTYNTRLVTVKVNGQWRLHSETSH | 1
DESEEKAREFLEILVRDVRTGDEESAVRLLDPNVRIEQGDKELHGWEVYIHWAKHIRMRSVHLRTMEVQGDKVILRGDERQEIDGVESVRDVIVYVRKINGRWVMTSIEVL | 2.15
DESEELAERLLEEMEELILTGDWEKFVRMVDPHARFVIGEFDNHGRETFVKELLELRVHIRDSRIREIDVQGEKIRMHTQIDFEIDVDGVRHRREHSFHFIVLKIDGRWSVQQLRIK | 0.64
DESEELAKQFMEVLARSMRTGDEEKIVKMLDPNVKVVINGVELHGREALEHILREIRVEDVWLTHIFVQGEKVRIDYREKGEFNGRLDTLTVHIIVKKIDGKWKITEFRIH | 1.89
DESEELSRIASHLFLRMMHTGNEEEISKLADPNTRLDVNGKHFHGMELIIHFLHELRRKLGVKYIRLKSVHITIVNGKVDLELEGDLLQGDFEIPSHIRNIALKVDGKWFIHRQEFRFE | 1.32
DESEELTEELSRLWLHWYLTGDEEIFKHNFDPNARQDYNGKEIHGRDRVVRFLEELWRMLGAKHFHIRHEEYYGNKVRIEGHITVGDKHRETEIQINIINGKIKEIRIEVK | 2.12
DESEELTKEAKRVYYETMRTGDEHNLKRLMDPNTRMDFNGVEFHGREAVKILVEQADHLEDVRIKRERVDEHEVELHGEFHGKVNGRHTTTHVILFWLKYNGRWRVKELQVR | 0.84
DESEELVRRFLEERIQDLRTGNWERIHENLDPNVRLIVNGRIFHGREALHVFRRRVDHNEDEKIRDVRIQGDKAEVDMEVLGVVNGVRTNFEAKLIMTKFDGKWSVKEVQID | 1.75
DESEERSRHATELFIRAIHTGDEHTLMNLLDPHVRTHYGDKEVHGRENVVKVMLELLHKLGADHVRWEYHDFKDINGRLHMDWRLHVVVGDKELTLQTHIITEKINGRWHSKYMEIR | 0.183
DESEESALKFLKEWREHFRTGNEDHMEELADPNVRVVIGDKEYHGWEETSRLISEKLRHMRVKFVLHTIRVVDGRIHVKSSLIIEVGDKELRVETSYHFEKVNGRWRLRVIHQE | 1.27
DESEESIRKVVKLLERAHRTGDEHEMKHLLDPNAKLIINGVELHGMELFEKLFKFERHHWRLHSMHVRHVDTQGDKANSDGEEDREFDGRREEVKTIIVMVKIDGRWHVKHIIFL | 1.08
DESEESMRHALEEIIESMVTGDEDRLRELADPNVRSKVNGRDIHGWKVVSKLVKELRIRDVKVEDKDREVQGEWMYFHGLFRIDGEFDGRRVDLELDLTIIAHKVNGRWVIRMFKYR | 1.63
DESEESSKEAWRLLLEMWKTGDEDEYSRMIDPNVRIEIGDKHFHGMEHASKRLQTFLKKLGFKHFRMILRDKDSQGNKIEIDLQIDIHQGDYHIHRRVTLILVKVDGKWSVESHHVI | 1.68
DESEETAVRMFKHWIRMIETGDEDSLEELADPNVRLEVNGQEVHGRELFLRFFLEMRIKRVRLRHIETQGEKLIIHGELDGEINGRRQETRVIIIVRKVDGKWIIKSIRIE | 2.76

Sequence | protease stability score
DESEHAAKHVSELFRELVDTGDEKFHEEFADPNVRLDYGDKHYHGREIQLRIFREWRIHHIEDKDVEVQGDKIFVDGRLDGTVDGRRQHYKIILIWRKVNGRWLSTQIRFH | 1.59
DESEKDSHMASLHIIELIETGDWRELRELLDPRTRLHIGDKDIHGREEALRNIIRVWHHMRIHRVHIRSIRLQGDYVRVEFEVDGTIDGKHHRIEVEFVAQKIDGRWHLKSEIYH | 1.12
DESEKHAEEFLRLLEESLLTGNWKFISELLDPRARTDYNGRDLHGRETMERWVKDFVRHIRIDHINNKTIDVQGDKVIIIGEVDGTINGRRERLEVHIFFLKVNGRWYLESTEFR | 1.27
DESEKIMEDATKEHVKSFETGDFHTLLRQLDPHVRNNVNGVELHGREDVIRVLRELMERFPNVRVHIERIEVIGDKVNIKVNWNFNGVIVDVNIIAAKINGRWVNREMEVR | 0.966
DESEKLEELIHERLRHLIETGDEDKLAKMADPNVRNRVGDFVHHGRERSHELLKWIFDHLGIDHLHIKHSSVIDGVVHFEIELRINGRTIRLHDHWFFINGRLDEISIHWE | 0.93
DESEKLVERLTEDFRKAFETGDEKRLYNLMDPNVRLDINGVEIIGRELISKDLAHDLRRFKNVKMEFRLREIRVIGNFAHIDGRDIINVDGVEKYHESNYIVHKIDGRWHIKEIIIH | 1.52
DESEKMFKEIWRLLIESHRTGDEDSLERLADPHARMDFNGVEHHGRRELVRILSEHYKRVDHIHLIIRDMDVQGNKVTMRGELVLEFNGRRQTHDVTIILSKVDGVWYLHSIIVR | 1.53
DESEKSAFRFFEEMTKVLSTGDEETFLKMLDPNTRLEVGDKERHGREDFIRLMRHLWEVLGADHVHIHVKDIKVVNGRADIDTDLIIYVNGKTIHRDTQIIVLKIDGRWVLTSMEVE | 2.02
DESEKYLKDAVEILIRVIRTGDEHTMKELLDPNVRLHAENHESHGRELLEWWTRRIDHVNDSKIEDMRTVGDYVELDMRLHTVFNGQTIDIKTTFIIIKVNGKWQLRSVHIH | 1.26
DESERDFRRALEIMHKVVETGNWEEAKRMFDPHVLLDVNGVLIHGREVIIKYVERIDHIRFHHDLKRIETQGDKIYADVHEDLDISINGKTIHIRTRVHIISQKYDGRWLNTEHKVE | 0.548
DESERDMETFVRITMDELVTGNEESIEEMLDPNVRLEVNGRQFHGREDATRIISEWIKILGINHRRLEEIRFVDGRAEVIVEIRVGDKRSELILISLKVNGQWRMERFEIRNE | 2.09
DESERIILHIANEFLHLYATGDEDRLRELADPHVRLDVDGQDVHGRELTQKWWKRFVEEIRIRDLHLKDYYIIGEKYHIEGHTRLHIGDKHVETEIRIHIVVVNGKIKSESFHLR | 0.541
DESERMVLELARLFLEDLLTGNEDLMSHLADPHAKNDINGVDLHGMEVISKHLSELRLRVLDITEERVQGDKVRIKVEVVIQYGDKWRETEVDLELYIVNGRLKSQIWTIR | 1.08
DESHEHIRFWAEIYIRIFETGDWDEMSRLLDPHYRLIQGDKHIVGRERALDHIDKEIKELRIHHIHIKDVKTQGDYVRIDGHVNYNVGDKILRFDFHIKLLVVDGKIKHSEERVR | 1.28
DESHELWRRNLELILQSRHTGDEFLTKELFDPRMRSNVNGVELHGMEEMLKFVSEIRIHVEHFRLHRIETQGDKIHIRAHEVINIEIGDYHVRLDTWVEMHDVKYNGRWFNTEVHIR | 0.979
DESHESLHKMLKVRYEALHTGDESMLNELLDPDARFNVDGRIHHGRERAVRYNERIPNLTTRDLKVHDWKVIGDKIHIDGRLEGHWNGKHHIINEEIIVQKINGKWLIEEVIVR | 0.109
DESHQLMLELLEELFHLLLTGNEETILRLADPNTRLQINGQETHGRESARHYWQRFLEHWRLKDYRIRSLYSQGDKAIIHTEVVLHYNGRDFRVTTEIRLWVFDGKIHEIIIIIN | 1.53
DESHRESKLANELLKLALHTGDEDLLRELLDPRMRLEIGDKEFIGRDIMVQAMHEFYRELGVKHTDLKIKRVEIQGNKVINEGILWFHVGDKEHWVSTEFQSVKVNGRWLLQVFSIK | 1.35
DESKDDSRRAVNLVVRTIQTGDWDLLIELLDPNVKIEINGQDLHGRETLFKTWLDEMRKLGVDRVHVELKHIEVQGEKVIVHVDVSVNGRDIKTEIIIHKVDGKWFIKSLHFK | 1.31
DESKEAAELFIKQVERSTKTGDERLFEEFIDPHMRLEIGEFDYHGREFLHITLRDLGMEIRTFIVKDIKVQGDKARIRVEEHIQVNGVEQRRQVKYVIDKFDGRWEIHSVHFD | 0.392
DESKESARSFEDLLQEVRRTGDERKLVNLIDPHVKININGKIFHGWEDLEREFHRIKNIRFHVERMRVVGDKIDVRGTLHVDGQTVDTEIDVYKIDGRWAIESLRIG | 1.43
DESKEVSEDALRIMIELIKTGDEHLLQRYIDPDVRVDVNGRHTHGWHWVVRQIFEEIKRVDHMRIHLDSERVFNGRVHLDVTIHVHINGVEIDIKITLTFHKFDGRWLFHHIKHK | 0.195
DESKRDVKMFHEIFLRAQSTGDEDELSHLADPNVRIHQGEFHNIGMEEFVKHIREMRVHVRDSHIERVEIQGDKLIVEVRLHMEIRYNGQRTERDVNLHLIIIKINGRWILHSIHIE | 1.02
DESMTEAKQILETLNKSLNTGDERLDKELFDPRAKLEFDGREIHGRELILTWLSEWRIEIKDFRIEDIEFQGNKVKMHTRIDMTVDFNGRRIKIDTTMHHDVIKVNGRWLIQRQIIP | 1.12
DESQEIAIEASKRLYNHLLTGDEDNLKRLLDPHVRIEIDGRDIHGMEEVTRLKREWRFDSIEIRVDSVRDVNGRLDVKGHMRYHVRIGDKSHDREVKMHLTAEKIDGRWHNKSIHFE | 1.26
